Laboratory results from patent US20240002503A1.

Target: LILRB2 (human) (UniProt Q8N423)
Assay: flow cytometry HLA-G blocking; hIgG4 isotype control

Chain of UniProt Q8N423 (Q8N423 22-597): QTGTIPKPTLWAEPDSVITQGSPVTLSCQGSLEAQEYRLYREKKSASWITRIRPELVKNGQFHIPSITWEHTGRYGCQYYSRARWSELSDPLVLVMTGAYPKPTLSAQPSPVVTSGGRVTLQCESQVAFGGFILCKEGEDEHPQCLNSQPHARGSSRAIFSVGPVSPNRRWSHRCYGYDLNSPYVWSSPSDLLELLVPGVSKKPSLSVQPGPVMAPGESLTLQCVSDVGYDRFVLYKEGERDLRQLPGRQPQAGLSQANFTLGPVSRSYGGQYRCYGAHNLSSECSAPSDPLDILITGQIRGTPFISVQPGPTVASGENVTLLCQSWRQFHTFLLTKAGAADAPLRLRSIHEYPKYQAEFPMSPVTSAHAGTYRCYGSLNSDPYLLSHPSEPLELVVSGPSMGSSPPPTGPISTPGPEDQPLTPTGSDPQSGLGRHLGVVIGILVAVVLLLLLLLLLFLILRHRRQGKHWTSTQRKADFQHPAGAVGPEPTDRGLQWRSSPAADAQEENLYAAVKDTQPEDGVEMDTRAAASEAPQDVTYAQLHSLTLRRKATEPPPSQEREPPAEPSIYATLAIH

Substance: Isotype
- IC50: > 66.7 nM
